The record followed here is paper PMC3136439, “Auxin Response Factor2 (ARF2) and Its Regulated Homeodomain Gene HB33 Mediate Abscisic Acid Response in Arabidopsis”.

Where a chain is given by its changes, count along the chain named.

This data set has as its target T1, GST-ARF2 N-terminus (ARF2-N1-470, DNA-binding domain) (Arabidopsis thaliana, UniProt Q94JM3 1-470).
T1 sequence: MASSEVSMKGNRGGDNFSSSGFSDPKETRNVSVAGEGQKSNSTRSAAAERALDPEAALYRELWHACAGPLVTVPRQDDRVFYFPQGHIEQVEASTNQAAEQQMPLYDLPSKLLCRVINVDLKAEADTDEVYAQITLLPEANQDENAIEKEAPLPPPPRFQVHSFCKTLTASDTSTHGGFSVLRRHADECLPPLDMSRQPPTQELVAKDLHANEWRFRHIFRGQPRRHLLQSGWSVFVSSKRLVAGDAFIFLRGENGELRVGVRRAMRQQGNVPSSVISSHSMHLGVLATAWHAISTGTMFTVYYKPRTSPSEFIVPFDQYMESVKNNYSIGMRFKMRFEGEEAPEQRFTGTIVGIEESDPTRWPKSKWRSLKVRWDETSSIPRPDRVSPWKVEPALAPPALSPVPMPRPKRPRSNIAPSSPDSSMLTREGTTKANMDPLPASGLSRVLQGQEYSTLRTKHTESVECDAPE
The data set is described as follows: EMSA; poly(dI-dC); EMSA: 5x buffer 50 mM HEPES-KOH pH 7.5, 375 mM KCl, 6.25 mM MgCl (so in the source), 1 mM DTT, 0.5 ug/mL BSA, 25% glycerol; 25 fmol probe, 6 ug protein, 1 ug poly(dI-dC) in 20 ul, room temperature 20 min; 6.5% native PAGE in TGE pH 8.3. The following applies: protein: recombinant; tags: GST; chain copies: 2; blunt. A general note: In EMSA bound probe runs differently from free probe, usually more slowly.

B1: HB33 promoter probe (dsDNA)
DNA 1: CCAAATTGTCTCTTATAATCCGATCTCAAAGGTTGGCTTGTTGGGAGCACTGAGACATCAAAC
DNA 2: GTTTGATGTCTCAGTGCTCCCAACAAGCCAACCTTTGAGATCGGATTATAAGAGACAATTTGG
As to B1, the binding result is “binds”.

B2: HB33 promoter mProbe (mP) (dsDNA)
DNA 1: B1 DNA 1 with T9A, T11A, A53T, A55T
DNA 2: B1 DNA 2 with T9A, T11A, A53T, A55T
For the molecule B2, the binding result is reported as “no binding”.
